Here are results for three molecules from publication PMC9239104, “Scaffolding Protein GspB/OutB Facilitates Assembly of the Dickeya dadantii Type 2 Secretion System by Anchoring the Outer Membrane Secretin Pore to the Inner Membrane and to the Peptidoglycan Cell Wall” (mBio, 2022).

B1: OutB HR domain (residues P112 to K220), purified (domain or fragment)
chain: PAKLVTGWQTAKPGELPYIAFSAHVYTSAPDKRSVTLNGERYREGDSPYQGLVIEQIEQDMVIFSFNGEPFILDSLQDWPGGKPGDDAAQGNEQEPTSKPEQTVRTTKK
notes: OutB (GspB) of Dickeya dadantii, conserved periplasmic domain, residues 112 to 220; uniformly 15N-labelled where it was the observed protein; the NMR methods speak of residues 112 to 193, the results and legends of 112 to 220; also called OutB^112–220; 15N-labeled OutB HR domain; source: E. coli BL21(DE3), purified (glutathione Sepharose, on-column PreScission cleavage, Superdex S200); not shown: …

Experiment [1] has as its target OutD N0 domain (residues 1 to 85 of signal peptide-less OutD), purified (Dickeya dadantii) (UniProt Q01565). Description: NMR titration; competition: 15N OutB HR 40 μM, unlabelled OutD N0 60 μM, unlabelled OutC HR 120, 240 and 360 μM; HSQC chemical shifts.
The target in experiment [2] is T1, OutD N0-N1-N2 domains (residues 1 to 258 of signal peptide-less OutD), purified (Dickeya dadantii, UniProt Q01565 28-285).
T1 construct: secretin OutD (GspD) of Dickeya dadantii, N0, N1 and N2 domains, residues A1 to V258; numbers count on: the mature protein
T1 sequence: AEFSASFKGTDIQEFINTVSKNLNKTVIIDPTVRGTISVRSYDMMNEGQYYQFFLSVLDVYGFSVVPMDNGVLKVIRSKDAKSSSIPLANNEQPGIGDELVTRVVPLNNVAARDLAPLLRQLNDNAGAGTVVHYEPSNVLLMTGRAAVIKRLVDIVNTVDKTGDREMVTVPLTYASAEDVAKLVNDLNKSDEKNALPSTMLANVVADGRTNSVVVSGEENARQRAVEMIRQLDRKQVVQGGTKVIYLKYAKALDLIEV
Briefly: NMR titration; 1H-15N HSQC of a 15N-labelled domain alone or with the unlabelled partner; each protein 200 μM; 15°C, 20 mM Tris-HCl pH 7.0, 10% D2O. The following applies: both partners purified.

Experiment [3] has as its target B1. Briefly: NMR titration; competition: 15N OutB HR 40 μM, unlabelled OutD N0 60 μM, unlabelled OutC HR 120, 240 and 360 μM; HSQC chemical shifts. The following applies: both partners purified.

Usually Kd stands for the free concentration of one partner at which half of the binding sites on the other are occupied at equilibrium, for simple one-to-one binding. Take “OutC HR domain (residues A78 to S158) (domain or fragment)”: the Kd in experiment [1] came out at 1 mM. In the case of B1, in experiment [2], the binding result is recorded as “binds”.

B2: OutD N0 domain (residues 1 to 85 of signal peptide-less OutD), purified (domain or fragment)
chain: AEFSASFKGTDIQEFINTVSKNLNKTVIIDPTVRGTISVRSYDMMNEGQYYQFFLSVLDVYGFSVVPMDNGVLKVIRSKDAKSSS
notes: secretin OutD (GspD) of Dickeya dadantii, N0 domain, residues A1 to S85; numbers count on: the mature protein; 15N-labelled in the reciprocal experiment
As to B2, in experiment [3], the Kd is approximately 10 µM.
